T1: human CD73 expressed at the cell surface (human, UniProt P21589 27-549)
T1 construct: GPI-anchored dimer on cells; also called huCD73; cellular CD73
T1 sequence: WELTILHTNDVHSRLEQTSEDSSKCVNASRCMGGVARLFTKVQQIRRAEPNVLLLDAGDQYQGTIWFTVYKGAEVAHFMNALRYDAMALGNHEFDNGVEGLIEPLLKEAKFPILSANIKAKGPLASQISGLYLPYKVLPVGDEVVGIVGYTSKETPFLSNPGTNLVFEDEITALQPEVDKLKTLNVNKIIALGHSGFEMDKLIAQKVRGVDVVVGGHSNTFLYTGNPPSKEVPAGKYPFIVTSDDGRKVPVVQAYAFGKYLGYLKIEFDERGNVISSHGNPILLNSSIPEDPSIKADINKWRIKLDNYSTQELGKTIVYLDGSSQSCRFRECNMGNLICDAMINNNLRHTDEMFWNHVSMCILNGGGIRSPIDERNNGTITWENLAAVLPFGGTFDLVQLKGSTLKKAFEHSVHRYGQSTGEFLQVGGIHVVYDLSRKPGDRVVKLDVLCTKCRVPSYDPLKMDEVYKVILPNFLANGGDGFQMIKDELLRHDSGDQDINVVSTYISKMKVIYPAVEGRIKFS

T2: human CD73 mutant 18 (human, UniProt P21589 27-549)
T2 construct: Transfected in HEK293T cells
T2 chain: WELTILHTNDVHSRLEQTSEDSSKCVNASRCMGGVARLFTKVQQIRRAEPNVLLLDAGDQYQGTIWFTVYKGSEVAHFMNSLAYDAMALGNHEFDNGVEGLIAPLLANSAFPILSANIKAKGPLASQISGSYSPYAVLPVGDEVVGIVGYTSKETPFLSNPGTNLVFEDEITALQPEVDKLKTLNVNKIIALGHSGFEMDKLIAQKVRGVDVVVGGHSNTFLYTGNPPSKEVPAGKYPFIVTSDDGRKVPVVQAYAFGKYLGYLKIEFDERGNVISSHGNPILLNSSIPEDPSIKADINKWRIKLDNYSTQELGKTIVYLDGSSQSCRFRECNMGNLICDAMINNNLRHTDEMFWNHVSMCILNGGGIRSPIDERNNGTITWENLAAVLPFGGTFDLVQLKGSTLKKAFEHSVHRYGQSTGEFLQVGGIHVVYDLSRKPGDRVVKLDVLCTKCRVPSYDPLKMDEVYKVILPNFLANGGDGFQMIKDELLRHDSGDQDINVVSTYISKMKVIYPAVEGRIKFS

T3: recombinant human CD73-His extracellular domain protein (soluble dimer) (human, UniProt P21589 27-547)
T3 construct: Purified as a dimer; also called huCD73; soluble recombinant human CD73
T3 sequence: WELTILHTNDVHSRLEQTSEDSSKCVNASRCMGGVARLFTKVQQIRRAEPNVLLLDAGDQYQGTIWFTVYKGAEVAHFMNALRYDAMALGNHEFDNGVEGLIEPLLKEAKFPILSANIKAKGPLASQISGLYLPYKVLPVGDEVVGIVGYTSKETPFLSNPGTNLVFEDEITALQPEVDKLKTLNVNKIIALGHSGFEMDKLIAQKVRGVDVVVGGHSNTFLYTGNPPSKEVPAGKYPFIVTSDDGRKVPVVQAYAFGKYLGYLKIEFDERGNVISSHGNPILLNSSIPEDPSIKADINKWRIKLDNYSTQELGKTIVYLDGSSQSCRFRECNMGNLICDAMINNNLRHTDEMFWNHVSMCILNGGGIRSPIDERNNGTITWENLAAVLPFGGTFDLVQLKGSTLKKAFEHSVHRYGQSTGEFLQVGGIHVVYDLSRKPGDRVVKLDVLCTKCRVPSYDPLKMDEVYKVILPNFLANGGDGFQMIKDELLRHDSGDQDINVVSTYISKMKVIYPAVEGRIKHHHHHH


What was measured:
[1] = target: T1, human CD73 expressed at the cell surface; assay: flow cytometry on MDA-MB-231 cells pre-incubated with 200 µM APCP
Protocol: MDA-MB-231 cells are available from ATCC (reference HTB-26). 10⁵ cells resuspended in PBS/0.2% BSA/0.02% NaN3 (named “staining buffer”) are distributed into round bottom 96W-microplates. Dose-range of anti-CD73 antibodies was added to the plates and cells are incubated for 45 min at 4° C. Cells were washed three times in staining buffer by spinning plates at 400 g for 3 min at 4° C. PE-coupled goat anti-mouse or goat anti-human IgG Fc fragment secondary antibodies (Beckman Coulter) diluted in staining buffer were added to the cells and plates are incubated for 30 additional minutes at 4° C. Cells were washed three times as described above and analyzed on an Accury C6 flow cytometer equipped with an HTFC plate reader.
Cells were pre-incubated at 37° C. for 30 minutes in the presence or not of 200 μM adenosine 5′-(α,β-methylene)diphosphate (APCP), followed by addition of antibodies. APCP is an analog of ADP and binds irreversibly to the active site of CD73. When bound by APCP, CD73 changes conformation from an “open” conformation to a “closed” conformation. mAbs 11E1, 8C7, 3C12 and 6E1 bound MDA-MB-231 cells with good affinity both in the presence and absence of APCP. In the presence of APCP, the EC50 was similar to that observed in the absence of APCP. The plateau for maximal binding of 11E1, 8C7, 3C12 and 6E1 was higher in the absence of APCP than in the presence of APCP, while the inverse was true for AD2.

human CD73 mutant 18 = target: T2, human CD73 mutant 18; assay: flow cytometry, HEK293T transfectants
[2] = target: T3, recombinant human CD73-His …; assay: ELISA, plate-coated recombinant human CD73
Protocol: 5 μg/ml of recombinant human CD73 protein (IPH, isoform E6) was coated on MaxiSorp ELISA plates (Nunc) in PBS, overnight at 4° C. Plates were washed 5 times in washing buffer (PBS, 0.05% Tween20) and unspecific sites were saturated by adding 200 μl/w TBS starting block buffer (Thermo Ficher). Dose-range of anti-CD73 antibodies were incubated for 2 h at 37° C. Plates were washed 5 times in washing buffer and HRP-coupled goat anti-human or goat anti-mouse IgG Fc fragment secondary antibody (Bethyl, 1/50000) was added for 1 hr at RT to detect bound anti-CD73 antibodies. […] The enzymatic reaction was stopped by adding HCl 1M and O.D. was measured at 450 nm. Optical density vs. anti-CD73 Ab concentration was plotted on graphs and EC50 is calculated using GraphPad Prism software.

[3] = target: T3, recombinant human CD73-His …; assay: cell-based or functional assay
[4] = target: T4, cynomolgus CD73 expressed on a recombinant host cell line (cynomolgus); assay: flow cytometry titration on a cynomolgus-CD73-expressing recombinant host cell line, median of fluorescence
T4 construct: whole, on cells; also called cynoCD73

EC50 [1]	binding result (human CD73 mutant 18)	EC50 [2]	EC50 for CD73 blockade (enzymatic activity of soluble recombinant human CD73-his) [3]	EC50 (read off the curve) [4]	Binder
0.0375 µg/mL	no binding	0.012 µg/mL	0.41 µg/mL	~0.4 µg/mL	antibody 11E1 (antibody, human IgG1, V domains shown, Produced as chimeric human IgG1 with heavy chain N297Q (Kabat EU numbering); also called 1E11) VH: EIQLQQSGPELVKPGASVKVSCKASGYAFTSYNMYWVKQSHGKSLEWIGYIDPYNGGTSYNQKFKGKATLTVDKSSSTAYMHLNSLTSEDSAVYYCARGYGNYKAWFAYWGQGTLVTVSA VL: DAVMTQTPKFLLVSAGDRVTITCKASQSVTNDVAWYQQKPGQSPKLLIYYASNRYTGVPDRFTGSGYGTDFTFTISTVQAEDLAVYFCQQDYSSLTFGAGTKLELK
0.0395 µg/mL	no binding	0.014 µg/mL	0.33 µg/mL	~0.4 µg/mL	antibody 6E1 (antibody, human IgG1, V domains shown, Produced as chimeric human IgG1 with heavy chain N297Q (Kabat EU numbering)) VH: EFQLQQSGPELVKPGASVKVSCKASGYAFTSYNMYWVKQSHGKRLEWIGYIDPYNGGSSYNQKFKGKATLTVDKSSSTAYMHLNNLTSEDSAVYYCARGYNNYKAWFAYWGQGTLVTVSA VL: SIVMTQTPKFLLVSAGDRVTITCKASQSVTNDVAWYQQKPGQSPKLLIYYASNRYTGVPDRFTGSGYGTDFTFTISTMQAEDLAVYFCQQDYSSLTFGAGTKLELK
0.0431 µg/mL	no binding	0.014 µg/mL	0.41 µg/mL	~0.4 µg/mL	antibody 3C12 (antibody, human IgG1, V domains shown, Produced as chimeric human IgG1 with heavy chain N297Q (Kabat EU numbering); RTVAAP)) VH: QIQLQQSGPELVKPGASVKVSCKASGYAFASYNMNWVKQSHGKSLDWIGYIDPYNGGSSYNLTFKGKATLTVDKSSTTAYMHLNSLTSEDSAVYYCARGYGNYKAWFAYWGQGTLVTVSA VL: DVVMTQTPKFLLVSAGDRVTITCKASQSVSNDVAWYQQKPGQSPKLLIYYASTRYTGVPDRFTGSGYGTDFTFTISTVQAEDLAVYFCQQDYSSLTFGAGTKLELKR

From US20180030144A1 (INNATE PHARMA, published 2018)
